Measured values reported in paper PMC6367351 (Nature Communications, 2019).

What was measured:
MinElp3 [1] = target: T1, MinElp3 (Methanocaldococcus infernus, UniProt D5VRB9 1-534); experiment: MST; details: EMSA: 25 C 30 min, 6% native PAGE at 4 C, tRNA stored in 20 mM HEPES pH 7.5, 150 mM NaCl, 5 mM DTT, 1 mM MgCl2, MST buffer not given in material
T1 sequence: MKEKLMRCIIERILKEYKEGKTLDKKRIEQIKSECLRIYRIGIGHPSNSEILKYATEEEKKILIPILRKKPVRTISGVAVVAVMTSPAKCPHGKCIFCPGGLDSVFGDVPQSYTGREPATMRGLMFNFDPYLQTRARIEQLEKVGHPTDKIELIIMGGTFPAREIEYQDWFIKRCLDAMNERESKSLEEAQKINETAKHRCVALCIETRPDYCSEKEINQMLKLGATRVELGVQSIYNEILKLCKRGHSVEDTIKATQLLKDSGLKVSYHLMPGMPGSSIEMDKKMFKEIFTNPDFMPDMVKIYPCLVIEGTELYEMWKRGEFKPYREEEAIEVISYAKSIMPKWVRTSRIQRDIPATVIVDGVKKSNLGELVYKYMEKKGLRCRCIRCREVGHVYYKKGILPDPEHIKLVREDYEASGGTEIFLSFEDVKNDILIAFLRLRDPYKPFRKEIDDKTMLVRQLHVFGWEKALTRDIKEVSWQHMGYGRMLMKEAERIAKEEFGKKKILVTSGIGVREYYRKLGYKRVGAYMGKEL

[2] = test system: DmcElp3 (Dehalococcoides mccartyi); experiment: MST; details: EMSA: 25 C 30 min, 6% native PAGE at 4 C; tRNA stored in 20 mM HEPES pH 7.5, 150 mM NaCl, 5 mM DTT, 1 mM MgCl2; MST buffer not given in material
[3] = test system: HsMinElp3 (Methanocaldococcus infernus / Homo sapiens chimera); experiment: MST; details: mean of 180, 141, 108; EMSA: 25 C 30 min, 6% native PAGE at 4 C; tRNA stored in 20 mM HEPES pH 7.5, 150 mM NaCl, 5 mM DTT, 1 mM MgCl2; MST buffer not given in material
[4] = test system: MinElp3Δ1-19 (Methanocaldococcus infernus); experiment: MST; details: legend omits CCA; wt data identical to the CCA set; EMSA: 25 C 30 min, 6% native PAGE at 4 C; tRNA stored in 20 mM HEPES pH 7.5, 150 mM NaCl, 5 mM DTT, 1 mM MgCl2; MST buffer not given in material
[5] = test system: MinElp3Δ1-41 (Methanocaldococcus infernus); experiment: MST; details: legend omits CCA; wt data identical to the CCA set; EMSA: 25 C 30 min, 6% native PAGE at 4 C; tRNA stored in 20 mM HEPES pH 7.5, 150 mM NaCl, 5 mM DTT, 1 mM MgCl2; MST buffer not given in material
[6] = test system: ScMinElp3 (Methanocaldococcus infernus / Saccharomyces cerevisiae chimera); experiment: MST; details: mean of 229, 162, 75; EMSA: 25 C 30 min, 6% native PAGE at 4 C; tRNA stored in 20 mM HEPES pH 7.5, 150 mM NaCl, 5 mM DTT, 1 mM MgCl2; MST buffer not given in material
[7] = target: T2, MinElp3 (Methanocaldococcus infernus) (UniProt D5VRB9); experiment: MST; details: EMSA: 25 C 30 min, 6% native PAGE at 4 C; tRNA stored in 20 mM HEPES pH 7.5, 150 mM NaCl, 5 mM DTT, 1 mM MgCl2; MST buffer not given in material
T2 sequence: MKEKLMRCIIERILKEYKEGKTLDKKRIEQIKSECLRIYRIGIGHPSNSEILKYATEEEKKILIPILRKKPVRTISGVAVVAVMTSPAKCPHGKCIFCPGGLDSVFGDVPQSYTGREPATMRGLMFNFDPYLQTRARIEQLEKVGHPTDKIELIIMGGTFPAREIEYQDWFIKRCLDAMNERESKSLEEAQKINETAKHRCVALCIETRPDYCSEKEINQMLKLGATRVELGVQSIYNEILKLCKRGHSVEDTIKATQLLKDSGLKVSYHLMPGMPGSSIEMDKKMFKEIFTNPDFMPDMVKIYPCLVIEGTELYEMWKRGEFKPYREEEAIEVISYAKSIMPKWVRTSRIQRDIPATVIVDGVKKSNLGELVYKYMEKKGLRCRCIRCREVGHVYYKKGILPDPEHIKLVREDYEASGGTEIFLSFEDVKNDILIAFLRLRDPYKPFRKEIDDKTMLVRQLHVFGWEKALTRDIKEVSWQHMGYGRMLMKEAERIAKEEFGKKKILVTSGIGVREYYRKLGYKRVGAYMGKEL

MinElp3 [8] = target: T3, MinElp3 (Methanocaldococcus infernus, UniProt D5VRB9); experiment: ITC (also tRNA-induced acetyl-CoA hydrolysis); format: binding
T3 construct: gene Metin_0452; full length
T3 sequence (D5VRB9 1-534): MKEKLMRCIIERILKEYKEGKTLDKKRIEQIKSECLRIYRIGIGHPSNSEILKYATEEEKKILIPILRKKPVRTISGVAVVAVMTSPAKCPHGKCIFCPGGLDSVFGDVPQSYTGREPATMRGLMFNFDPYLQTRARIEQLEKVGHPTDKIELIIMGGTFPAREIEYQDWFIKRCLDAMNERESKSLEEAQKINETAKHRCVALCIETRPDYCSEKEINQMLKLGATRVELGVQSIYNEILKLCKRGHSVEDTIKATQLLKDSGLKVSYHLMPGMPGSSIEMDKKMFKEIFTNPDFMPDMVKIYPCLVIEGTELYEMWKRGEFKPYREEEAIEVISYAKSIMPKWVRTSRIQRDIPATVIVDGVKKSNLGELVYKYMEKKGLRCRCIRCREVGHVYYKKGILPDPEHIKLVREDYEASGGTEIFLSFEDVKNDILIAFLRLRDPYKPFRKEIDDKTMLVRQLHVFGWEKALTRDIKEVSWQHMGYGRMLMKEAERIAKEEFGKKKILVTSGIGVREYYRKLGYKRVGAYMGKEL

MinElp3 [9] = target: T4, MinElp3 (Methanocaldococcus infernus, UniProt D5VRB9, DEL466-486/INS466GSGSG); experiment: ITC (also tRNA-induced acetyl-CoA hydrolysis); format: binding
T4 construct: gene Metin_0452

MinElp3 [10] = target: T5, MinElp3 (Methanocaldococcus infernus, UniProt D5VRB9, K150A); experiment: acetyl-CoA binding measurement (Supplementary Fig. 6b)
T5 construct: gene Metin_0452
T5 sequence (D5VRB9 1-534 K150A): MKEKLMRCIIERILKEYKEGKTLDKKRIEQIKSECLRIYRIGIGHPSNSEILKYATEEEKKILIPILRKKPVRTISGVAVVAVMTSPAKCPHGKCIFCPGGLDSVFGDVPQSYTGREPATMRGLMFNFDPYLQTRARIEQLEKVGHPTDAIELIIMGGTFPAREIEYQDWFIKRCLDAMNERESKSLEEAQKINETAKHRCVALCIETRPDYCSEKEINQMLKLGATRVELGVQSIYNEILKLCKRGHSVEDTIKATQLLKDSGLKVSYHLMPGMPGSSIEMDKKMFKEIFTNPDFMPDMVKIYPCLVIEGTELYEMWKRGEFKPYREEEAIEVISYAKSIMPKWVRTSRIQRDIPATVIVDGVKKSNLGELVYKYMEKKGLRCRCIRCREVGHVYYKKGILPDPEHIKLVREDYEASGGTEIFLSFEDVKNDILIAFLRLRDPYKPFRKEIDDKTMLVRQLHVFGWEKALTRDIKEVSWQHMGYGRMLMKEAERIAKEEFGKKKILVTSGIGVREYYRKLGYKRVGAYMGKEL

DmcElp3 = target: T6, DmcElp3 (Dehalococcoides mccartyi, UniProt A0A1C7D1B7); experiment: acetyl-CoA hydrolysis by purified protein, induced by yeast bulk tRNA (weak); format: biochemical
T6 construct: gene cbdbA595

[11] = target: the molecule itself; experiment: SEC; S200 gel filtration, 20 mM HEPES pH 7.5, 150 mM NaCl, 5 mM DTT; aerobic purification; masses of the monomeric forms confirmed by SDS-PAGE and light scattering (RALS and LALS)

T6 sequence (A0A1C7D1B7 whole entry): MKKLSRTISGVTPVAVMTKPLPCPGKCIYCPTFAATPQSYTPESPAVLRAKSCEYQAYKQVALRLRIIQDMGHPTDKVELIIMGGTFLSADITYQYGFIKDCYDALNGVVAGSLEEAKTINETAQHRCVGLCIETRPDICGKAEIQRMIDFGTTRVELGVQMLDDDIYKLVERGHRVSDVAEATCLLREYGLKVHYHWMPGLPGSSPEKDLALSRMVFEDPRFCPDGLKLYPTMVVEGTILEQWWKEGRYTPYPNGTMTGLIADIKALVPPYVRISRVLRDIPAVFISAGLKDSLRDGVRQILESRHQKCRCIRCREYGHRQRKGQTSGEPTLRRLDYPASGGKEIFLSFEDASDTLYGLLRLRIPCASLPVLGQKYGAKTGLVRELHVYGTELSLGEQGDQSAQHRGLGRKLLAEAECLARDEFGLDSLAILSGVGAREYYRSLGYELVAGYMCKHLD
T4 sequence (D5VRB9 other isoform, or with tags, fused parts or gaps DEL466-486/INS466GSGSG): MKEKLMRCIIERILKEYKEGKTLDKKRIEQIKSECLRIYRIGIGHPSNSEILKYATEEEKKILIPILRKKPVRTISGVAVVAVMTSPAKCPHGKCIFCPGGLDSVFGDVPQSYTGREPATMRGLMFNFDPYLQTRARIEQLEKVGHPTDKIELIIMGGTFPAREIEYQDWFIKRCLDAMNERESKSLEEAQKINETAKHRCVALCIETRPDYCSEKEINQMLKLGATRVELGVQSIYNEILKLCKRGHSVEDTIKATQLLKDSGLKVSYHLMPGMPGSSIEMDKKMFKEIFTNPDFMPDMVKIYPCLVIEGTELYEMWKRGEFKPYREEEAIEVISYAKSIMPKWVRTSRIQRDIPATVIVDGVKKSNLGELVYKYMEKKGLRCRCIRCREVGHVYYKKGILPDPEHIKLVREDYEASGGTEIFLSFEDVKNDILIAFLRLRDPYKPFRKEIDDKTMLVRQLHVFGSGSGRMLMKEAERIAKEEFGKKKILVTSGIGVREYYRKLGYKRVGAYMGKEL

How did the Kd (MinElp3 [1]; replicates 240, 261, 280 nM) turn out when (Sc)tRNACysGCA was run?
The Kd was 260 nM.

Which Kd [2] does the source give for (Dmc)tRNAGluUUC(CCA) here?
The Kd was 1410 nM.

What about the Kd [3] of the same molecule?
The Kd was 143 nM.

And the Kd [4]?
Its Kd is 210 nM.

What about the Kd [5] of the same molecule?
Its Kd is 980 nM.

What about the Kd (MinElp3 [1]) of the same molecule?
The Kd was 50 nM.

And the Kd [6]?
Its Kd is 155 nM.

Which Kd [7] does the source give for “GCUCGUAUGGCGCAGUGGUAGCGCAGCAGAUUGCAAAUCUGUUGGUCCUUAGUUCGAUCCUGAGUGCGAGCUGCGUCUUCCCAUGGGUGUAUUCGGUCG [(Sc)tRNACysGCA]” here?
Its Kd is 260 nM.

How did the Kd (MinElp3 [1]; mean of 495, 434, 596) turn out when (Dmc)tRNAGluUUC was run?
Its Kd is 508 nM.

For `CC(=O)SCCNC(=O)CCNC(=O)[C@H](O)C(C)(C)COP(=O)(O)OP(=O)(O)OC[C@H]1O[C@@H](n2cnc3c(N)ncnc32)[C@H](O)[C@@H]1OP(=O)(O)O` [acetyl-CoA], which Kd (MinElp3 [8]) is on record?
Its Kd is 135000 ± 55300 nM.

What about the Kd (MinElp3 [9]) of the same molecule?
The Kd was 108000 ± 55800 nM.

What about the “acetyl-CoA binding measurement (Supplementary Fig. 6b)” value (MinElp3 [10]) of the same molecule?
Its value is “As K150A shows normal tRNA and acetyl-CoA binding, we believe that it might be directly involved the hydrolysis reaction”.

What about the “acetyl-CoA hydrolysis by purified protein, induced by yeast bulk tRNA (weak)” value (DmcElp3) of the same molecule?
The value was “DmcElp3, on the other hand, showed ~5-times reduced-induced hydrolysis activity”.

(Sc)tRNASerUGA was tested. Which Kd (MinElp3 [1]; replicates 322, 539, 293 nM) did it give?
The Kd was 370 nM.

B1: MinElp3 Δ1–19 (domain or fragment, Methanocaldococcus infernus, UniProt D5VRB9 20-534, looked up)
chain: GKTLDKKRIEQIKSECLRIYRIGIGHPSNSEILKYATEEEKKILIPILRKKPVRTISGVAVVAVMTSPAKCPHGKCIFCPGGLDSVFGDVPQSYTGREPATMRGLMFNFDPYLQTRARIEQLEKVGHPTDKIELIIMGGTFPAREIEYQDWFIKRCLDAMNERESKSLEEAQKINETAKHRCVALCIETRPDYCSEKEINQMLKLGATRVELGVQSIYNEILKLCKRGHSVEDTIKATQLLKDSGLKVSYHLMPGMPGSSIEMDKKMFKEIFTNPDFMPDMVKIYPCLVIEGTELYEMWKRGEFKPYREEEAIEVISYAKSIMPKWVRTSRIQRDIPATVIVDGVKKSNLGELVYKYMEKKGLRCRCIRCREVGHVYYKKGILPDPEHIKLVREDYEASGGTEIFLSFEDVKNDILIAFLRLRDPYKPFRKEIDDKTMLVRQLHVFGWEKALTRDIKEVSWQHMGYGRMLMKEAERIAKEEFGKKKILVTSGIGVREYYRKLGYKRVGAYMGKEL
notes: Elp3 of Methanocaldococcus infernus without residues 1-19; Truncations were cloned into pETM30 or pETM11; The general purification goes by a GST tag that is cleaved; source: E. coli BL21 (DE3) CodonPlus-RIL, purified (GSTPrep, heparin, SEC)
Does B1 bind [11]?
Result: binds
